What all share (experiment): purified protein
What all share (type): biochemical, Thalictrum flavum

One data set deals with CCCCCC=O. Particulars: 2.5 mM dopamine (nonsaturating), 50 mM Hepes, 37 °C.
Another data set relates to O=CCc1ccc(O)cc1. The conditions noted are these: 2.5 mM dopamine (nonsaturating), 50 mM Hepes, 37 °C.
Another data set concerns CC(C)=CCC[C@@H](C)CC=O. Particulars: 2.5 mM dopamine (nonsaturating), 50 mM Hepes, 37 °C.
The next data set deals with NCCc1ccc(O)c(O)c1. The conditions noted are these: 2.5 mM 4-HPAA (nonsaturating), 50 mM Hepes, 37 °C.
The next data set deals with CC(C)=CCC[C@H](C)CC=O. The conditions noted are these: 2.5 mM dopamine (nonsaturating), 50 mM Hepes, 37 °C.

As usually defined, the Km is the concentration of substrate that gives half-maximal velocity. One may read the Vmax as the top rate of the reaction or transport when substrate is in excess. The kcat is the maximal rate divided by the concentration of active sites. Usually kcat/Km stands for the turnover number divided by the Michaelis constant. In the case of “TfNCS (Δ29TfNCS) (Thalictrum flavum subsp. glaucum)”, the Km in the data set on CCCCCC=O was found to be 13.4 ± 1.8 mM; with O=CCc1ccc(O)cc1 it was 18.1 ± 1.4 mM; in the data set on CC(C)=CCC[C@@H](C)CC=O, 0.53 ± 0.14 mM; in the data set on NCCc1ccc(O)c(O)c1, 22.2 ± 1.5 mM; in the data set with CC(C)=CCC[C@H](C)CC=O, 0.38 ± 0.10 mM. For the same substance, the Vmax in the data set with CCCCCC=O worked out at 12.3 µmol/min/mg; in the data set with O=CCc1ccc(O)cc1 it was 53.6 µmol/min/mg; in the data set on CC(C)=CCC[C@@H](C)CC=O, 1.07 µmol/min/mg; in the data set with NCCc1ccc(O)c(O)c1 it was 69 µmol/min/mg; with CC(C)=CCC[C@H](C)CC=O, 1.32 µmol/min/mg. For the same substance, the kcat with CCCCCC=O was 4.3 ± 0.3 s⁻¹; in the data set with O=CCc1ccc(O)cc1, 18.7 ± 0.9 s⁻¹; in the data set with CC(C)=CCC[C@@H](C)CC=O it was 0.37 ± 0.03 s⁻¹; in the data set with NCCc1ccc(O)c(O)c1, 24 ± 1 s⁻¹; with CC(C)=CCC[C@H](C)CC=O, 0.46 ± 0.02 s⁻¹. Also, the specificity constant (kcat/Km) in the data set with CCCCCC=O worked out at 320 ± 50 M⁻¹ s⁻¹; in the data set with O=CCc1ccc(O)cc1, 1030 ± 90 M⁻¹ s⁻¹; in the data set on CC(C)=CCC[C@@H](C)CC=O, 710 ± 200 M⁻¹ s⁻¹; with NCCc1ccc(O)c(O)c1, 1090 ± 80 M⁻¹ s⁻¹; with CC(C)=CCC[C@H](C)CC=O, 1200 ± 310 M⁻¹ s⁻¹.
As to “TfNCS (Δ29TfNCS) (Thalictrum flavum subsp. glaucum; L76A)”, the Km with CCCCCC=O is reported as 13.4 ± 0.8 mM; in the data set on O=CCc1ccc(O)cc1, 17.4 ± 1.0 mM; with CC(C)=CCC[C@@H](C)CC=O, 0.49 ± 0.11 mM; in the data set with NCCc1ccc(O)c(O)c1, 16.8 ± 1.0 mM; in the data set on CC(C)=CCC[C@H](C)CC=O it was 0.59 ± 0.09 mM. The Vmax in the data set with CCCCCC=O worked out at 9 µmol/min/mg; with O=CCc1ccc(O)cc1 it was 40.9 µmol/min/mg; with CC(C)=CCC[C@@H](C)CC=O, 1.58 µmol/min/mg; in the data set with NCCc1ccc(O)c(O)c1, 38.9 µmol/min/mg; in the data set on CC(C)=CCC[C@H](C)CC=O, 2.7 µmol/min/mg. Also, the kcat was 3.2 ± 0.1 s⁻¹ in the data set with CCCCCC=O; 14.3 ± 0.5 s⁻¹ in the data set with O=CCc1ccc(O)cc1; 0.55 ± 0.03 s⁻¹ in the data set with CC(C)=CCC[C@@H](C)CC=O; 13.6 ± 0.5 s⁻¹ in the data set with NCCc1ccc(O)c(O)c1; 0.93 ± 0.05 s⁻¹ in the data set on CC(C)=CCC[C@H](C)CC=O. For the same substance, the kcat/Km worked out at 240 ± 20 M⁻¹ s⁻¹ with CCCCCC=O; 820 ± 50 M⁻¹ s⁻¹ in the data set on O=CCc1ccc(O)cc1; 1130 ± 270 M⁻¹ s⁻¹ in the data set on CC(C)=CCC[C@@H](C)CC=O; 810 ± 60 M⁻¹ s⁻¹ in the data set on NCCc1ccc(O)c(O)c1; 1570 ± 250 M⁻¹ s⁻¹ with CC(C)=CCC[C@H](C)CC=O.
“TfNCS (Δ29TfNCS) (Thalictrum flavum subsp. glaucum; Y108F)”: in the data set with CCCCCC=O, the Km stood at 7.6 ± 0.9 mM, the Vmax came to 7.14 µmol/min/mg, the kcat worked out at 2.5 ± 0.1 s⁻¹ and the kcat/Km was found to be 330 ± 40 M⁻¹ s⁻¹. In the data set with NCCc1ccc(O)c(O)c1, the Km is given as 13.3 ± 0.7 mM, the Vmax came to 29.1 µmol/min/mg, the kcat came out at 10.2 ± 0.3 s⁻¹ and the catalytic efficiency (kcat/Km) was 760 ± 50 M⁻¹ s⁻¹.

The values are drawn from paper PMC4413047, “‘Dopamine-first’ mechanism enables the rational engineering of the norcoclaurine synthase aldehyde activity profile” (The Febs Journal, 2015).
